# Data as given in the RNAGym collection of RNA variant scans (doi:10.1073/pnas.2313332121).
# B1: TPR t1 (parent)
# chain: GACCAAUCUGCCCUCAGAGCUCGAGAACAUCUUCGGAUGCAGAGGAGGCAGGCUUCGGUGGCGCGAUAGCGCCAACGUCCUCAACCUCCAAUGCAUCCCACCACAUGAUGAUGCCUGAAGAGCCUUGGUUUUUUG
# Variants of: B1
# Assay: polymerase ribozyme fitness, log enrichment relative to wild type (log ratio); higher = more active; in vitro selection for triplet polymerase activity
# Method in brief: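 One round of in vitro selection, in triplicate, was applied to PCR-built, transcribed mutant libraries of each subunit of a heterodimeric triplet polymerase ribozyme. The steps were annealing with a biotinylated primer, partner subunit and triplets, incubation frozen at −7 °C, gel excision of extended constructs, streptavidin-bead capture and RT-PCR. Fitness is the logarithm, base 2, of genotype enrichment over wild-type enrichment from inverse-variance-weighted replicate averages of Illumina-sequenced inputs and outputs, keeping genotypes with ≥10 input reads and ≥1 read per output.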
row,Variant,polymerase ribozyme fitness (log ratio)
1,A50C U87A,-0.514
2,A50G G71C G113U U126A,-6
3,G51A A74G,-1.96
4,A50C G63U U81G G128C,-4.28
5,A50U G69U C80G C98U G113A,-3.31
6,C49U G60C G127A,-2.38
7,A50C G71A G77U G120C,-1.85
8,A50G C101U,-0.187
9,C49U A119U,-0.961
10,G51A C62A G117U U134G,-5.73
11,A50U C62G,-3.56
12,A50U C62U,-1.15
13,A50C A121U,2.16
14,A50G C76U,-0.383
15,A50G C76G,-0.226
16,A50C G120A,0.456
17,A50C G120C,0.605
18,C49U U116G,-2.41
19,A50U G60C C123A G127C U132C,-0.878
20,A50G G57C G61U C88G,-3.3
21,A50C G69U,-0.0602

row,Variant,polymerase ribozyme fitness (log ratio)
1,C49U U92A,-3.99
2,A50G G63U,-1.73
3,A50C G52U,-2.09
4,A50U U78C,-2.19
5,C49U U81G,-3.78
6,C49U G77U G113U G122U C124A,-3.66
7,C49U A121U,1.09
8,C49U C94U A111U,-5.05
9,C49U C80U C114U G122U,-5.64
10,A50G C64U C88G,-0.539
11,C49U C89G,-1.74
12,G51A C62A A75C U131A,-5.36
13,A50U A74C A84G U112A,-4.89
14,A50U G93C,-1.95
15,A50G C70U A111U,-4.72
16,A50U C85G C89A G120U,-3.42
17,A50U C102A,-2.99
18,A50C C72G U87G G120C U131A,0.442
19,C49U C102A,-3.24
20,C49U U109G,-5.61
21,A50U G51A C73U,-3.5

row,Variant,polymerase ribozyme fitness (log ratio)
1,A50U C72U U96A U112A,-1.9
2,A50C C72U U81G C85A,-1.34
3,A50U C62U U106A,-1.01
4,C49U C53A C101A G120A,-1.13
5,A50U G69A C101A U130G,-6.9
6,A50U C56A A66U G69U C80G C104G C115G C123U U130C,-8.27
7,C49U C72U A75U U106G,-3.16
8,A50C C62U C115U,-2.55
9,A50U G71C G117A,-3.1
10,C49U G77C C124G U125C,-0.664
11,A50U U109A,-5.95
12,C49U G63A U92G A121G,-3.84
13,A50G C53G G61A C64U U116A G117A,-4.58
14,C49U G61A C79U C97G,-5.31
15,A50U G52C G58C C73U C88U,-4.53
16,A50U C72G C79U U112A,-3.66
17,A50C G71U A121C,0.855
18,A50U C56U G71C C123A,-6.51
19,A50G C53U U129C U130G,-0.774
20,A50C U55G G58C U81A C124A,1.51
21,A50C C56A A66G,-2.8

row,Variant,polymerase ribozyme fitness (log ratio)
1,A50U C86U,-1.27
2,C49U C73U U81G U96C,-4.51
3,A50U U92A,-5.22
4,A50U U92G,-3.4
5,A50G C82U,0.198
6,C49U G61U U78G,-0.458
7,C49U G93A G110A,-2.9
8,G51A C53A G61A C73U,-2.68
9,C49U U55G G63A,-1.98
10,C49U G117U,-2.67
11,G51A C72G,-2.71
12,A50U C88U,-1.71
13,C49U C80A U81C U106A U112A,-4.56
14,A50U U59A G60C C80G C88U,-2.26
15,C49U G57A U96A,-3.31
16,A50G U78C,0.0914
17,A50G G77A,-0.057
18,A50C U87G C98U,-0.87
19,A50G C70G,-4.35
20,A50G C70U,-0.709
